According to patent publication US20220251222A1, “IL-6Ralpha/IL-8R BISPECIFIC BINDING AGENTS FOR INHIBITING CANCER CELL MIGRATION” (The Johns Hopkins University, priority 2019, published 2022):

Legend:
[1] = molecular target: T1, IL-8R (Homo sapiens, UniProt P25025); test: Cell surface binding on IL-6Rα−/IL-8R+ HEK 293T cells (flow cytometry); settings: 2 hr at 4° C.
T1 construct: expressed in transfected cells; host or cells: HEK 293T, lentiviral transduction (pCDH backbone)
T1 sequence (P25025 1-360): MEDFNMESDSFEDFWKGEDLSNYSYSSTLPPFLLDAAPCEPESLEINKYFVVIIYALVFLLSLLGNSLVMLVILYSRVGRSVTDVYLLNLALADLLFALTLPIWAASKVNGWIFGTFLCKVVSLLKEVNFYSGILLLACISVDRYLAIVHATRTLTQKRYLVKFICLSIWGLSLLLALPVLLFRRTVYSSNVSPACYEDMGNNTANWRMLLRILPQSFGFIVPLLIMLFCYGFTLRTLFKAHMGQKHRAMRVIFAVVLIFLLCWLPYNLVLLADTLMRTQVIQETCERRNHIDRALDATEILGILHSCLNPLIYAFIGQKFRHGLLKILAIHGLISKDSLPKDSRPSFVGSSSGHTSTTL
Text: GeneJuice (Sigma Aldrich) was used as the transfection reagent.
Mean fluorescence intensity (MFI) of unstimulated cells was subtracted.

[2] = molecular target: T2, IL-6/IL-6Rα interaction (Homo sapiens, UniProt P08887); test: Yeast cell surface competition of IL-6/IL-6Rα binding; settings: IL-6-displaying yeast, biotinylated IL-6Rα ECD 300 nM
T2 construct: residues 89-303 of the mature protein; hexahistidine (C); made in house; host or cells: HEK 293F (IL-6Rα ECD)
T2 sequence (P08887 108-322): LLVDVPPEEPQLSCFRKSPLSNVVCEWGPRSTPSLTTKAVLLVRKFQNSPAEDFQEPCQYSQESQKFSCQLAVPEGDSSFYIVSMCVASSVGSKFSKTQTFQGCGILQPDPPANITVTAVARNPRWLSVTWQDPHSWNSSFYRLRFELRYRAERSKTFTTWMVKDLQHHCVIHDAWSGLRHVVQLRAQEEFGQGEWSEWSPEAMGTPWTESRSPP
Description: Approximately 1×10^5 human IL-6-displaying yeast per well were plated in a 96-well plate and washed with PBSA. Yeast cells were incubated with saturating concentrations of biotinylated human IL-6Rα (300 nM) and serial dilutions of unlabeled competitor antibody (either the anti-IL-6R antibody tocilizumab, the anti-IL-8R antibody 10H2, BS1, or BS2) in PBSA for 2 hours at room temperature. Cells were then washed and stained with a 1:200 dilution of Alexa647-conjugated streptavidin (Thermo) in PBSA for 15 min at 4° C. Cells were washed again and assessed for human IL-6Rα binding on a CytoFLEX flow cytometer (Beckman Coulter). Background-subtracted fluorescent signal as a fraction of receptor subunit binding in the absence of competitor antibody was plotted. Curves were fitted to a first order logistic model and half maximal inhibitory concentrations (IC50s) were computed using GraphPad Prism. Assays were performed in triplicate and repeated two times with consistent results.

[3] = molecular target: T3, IL-6 binding to IL-6Rα (Homo sapiens, UniProt P08887); test: IL-6 cell surface binding inhibition on IL-6Rα+/IL-8R− HEK 293T cells; settings: IL-6Rα+/IL-8R− 293 T cells, biotinylated IL-6 100 nM
T3 construct: expressed in transfected cells; host or cells: HEK 293T, lentiviral transduction (IL-6Rα+/IL-8R−)
T3 sequence (P08887 20-468): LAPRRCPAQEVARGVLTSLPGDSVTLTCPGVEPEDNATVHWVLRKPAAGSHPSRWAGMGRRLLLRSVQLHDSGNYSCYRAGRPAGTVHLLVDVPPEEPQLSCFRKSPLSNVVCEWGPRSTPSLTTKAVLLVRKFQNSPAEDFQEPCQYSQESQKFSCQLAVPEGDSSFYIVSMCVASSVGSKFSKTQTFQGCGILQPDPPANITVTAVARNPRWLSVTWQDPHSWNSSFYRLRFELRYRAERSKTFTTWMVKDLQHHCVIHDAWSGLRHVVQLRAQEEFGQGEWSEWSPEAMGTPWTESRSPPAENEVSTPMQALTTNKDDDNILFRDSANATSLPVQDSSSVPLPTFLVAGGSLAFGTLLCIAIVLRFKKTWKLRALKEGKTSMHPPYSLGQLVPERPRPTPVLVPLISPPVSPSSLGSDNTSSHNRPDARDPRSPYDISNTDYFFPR
Description: Cells were then washed and incubated with 1:200 dilution of Alexa Fluor 647-conjugated streptavidin (Fisher Scientific, cat #: S21374) in PBSA for 15 min at 4° C. […] Curves were fitted to a first-order logistic model and IC50 values were calculated using GraphPad Prism data analysis software. Mean fluorescence intensity (MFI) of unstimulated cells was subtracted. […]

[4] = system: IL-6-mediated phosphorylation of STAT3; test: IL-6 signaling inhibition assay (STAT3 phosphorylation) in HepG2 cells; assay type: cell-based, human; settings: IL-6 10 nM, 20 min at 37° C.
Description: HepG2 cells were then fixed with 1.6% PFA, permeabilized with methanol and incubated with 1:50 dilution of Alexa Fluor 647 conjugated anti-pSTAT3 antibody (BD Biosciences, clone 4/P-STAT3) in PBSA for 2 h at room temperature. […] IC50 values were calculated using a first order logistic fitting models in GraphPad Prism data analysis software. Mean fluorescence intensity (MFI) of unstimulated cells was subtracted. Experiments were conducted in triplicate and performed twice times with similar results.

[5] = molecular target: T4, human IL-6Rα ECD (Homo sapiens, UniProt P08887); test: Bio-layer interferometry (BLI) binding to immobilized IL-6Rα ECD; settings: immobilized biotinylated IL-6Rα ECD, PBSA, 25° C., equilibrium titration
T4 construct: residues 89-303 of the mature protein; hexahistidine (C); made in house; host or cells: HEK 293F
T4 sequence (P08887 108-322): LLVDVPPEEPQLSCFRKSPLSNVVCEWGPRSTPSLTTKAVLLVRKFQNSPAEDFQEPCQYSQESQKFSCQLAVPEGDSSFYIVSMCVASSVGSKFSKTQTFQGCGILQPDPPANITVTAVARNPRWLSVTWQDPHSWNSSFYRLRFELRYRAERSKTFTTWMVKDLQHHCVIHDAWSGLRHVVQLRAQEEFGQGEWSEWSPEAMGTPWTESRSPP
Description: Biotinylated human IL-6Rα ECD was immobilized to streptavidin-coated tips for analysis on an Octet® Red96 BLI instrument (ForteBio). Less than 5 signal units (nm) of receptor was immobilized to minimize mass transfer effects. Tips were exposed to serial dilutions of the anti-IL-6R antibody tocilizumab, the anti-IL-8R antibody 10H2, BS1, or BS2 in a 96-well plate for 300 s and dissociation was measured for 600 s. Surface regeneration for all interactions was conducted using 15 s exposure to 0.1 M glycine pH 3.0. Experiments were carried out in PBSA (phosphate-buffered saline [PBS] pH 7.3 plus 0.1% bovine serum albumin [BSA, Thermo]) at 25° C. Data was visualized and processed using the Octet® Data Analysis software version 7.1 (ForteBio). Equilibrium titration curve fitting and equilibrium dissociation constant (KD) value determination was implemented in GraphPad Prism software using a first-order logistic model. Experiments were reproduced two times with similar results.

[6] = molecular target: T5, Human IL-6 (Homo sapiens, UniProt P05231); test: Yeast cell surface affinity titration of IL-6Rα ECD on IL-6-displaying yeast; assay type: binding; settings: 2 hours at room temperature, flow cytometry; read-out: KD of soluble IL-6Rα ECD on IL-6-displaying yeast
T5 construct: Human IL-6 (residues 3-185) was cloned into the pCT302 vector; made in house; host or cells: yeast (surface display)
T5 sequence (P05231 30-212): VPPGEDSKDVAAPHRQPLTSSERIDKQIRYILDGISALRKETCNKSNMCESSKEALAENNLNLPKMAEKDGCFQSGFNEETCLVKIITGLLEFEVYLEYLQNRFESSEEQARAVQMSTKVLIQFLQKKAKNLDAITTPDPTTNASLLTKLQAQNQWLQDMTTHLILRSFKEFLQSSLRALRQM
Description: Human IL-6 (residues 3-185) was cloned into the pCT302 vector and presented on the surface of yeast, as described previously. (See Boder E T, Wittrup K D. Yeast surface display for screening combinatorial polypeptide libraries. Nat Biotechnol. 1997 June; 15(6):553-557. PMID: 9181578). Yeast displaying human IL-6 were incubated in PBSA containing serial dilutions of recombinant IL-6Rα ECD for 2 hours at room temperature. Cells were then washed and stained with a 1:200 dilution of Alexa647-conjugated streptavidin (Thermo) in PBSA for 15 min at 4° C. After a final wash, cells were analyzed for antibody binding using a CytoFLEX flow cytometer (Beckman Coulter).

B1: 10H2: anti-IL-8RB monoclonal antibody, expressed as hIgG1 (antibody, V domains shown)
VH: EVQLVETGGRLVQPKGSLKLSCAVSGITFKTNAMNWVRQAPGKGLEWVARIRTKSYNYATYYADSVKDRFTISRDDSQSILYLQMNNLKTEDTAMYHCVREGRWGQGTLVTVSA
VL: QAVVTQESALTTSPGETVTLTCRSSTGAVTTSNYANWVQEKPDHLFTGLIGGTNNRPPGVPARFSGSLIGDKAALTITGAQIEDEAIYFCALWYSNHLVFGGGTKLTVL
KD, binding to IL-8R on cells [1]: only recognized IL-8R^+ cells
IC50, inhibition of IL-6/IL-6Rα binding [2]: did not compete
IC50, competition with IL-6 binding to IL-6Rα [3]: no inhibitory effects
IC50, inhibition of STAT3 phosphorylation [4]: did not effect inhibition
binding affinity (KD) to IL-6Rα via BLI [5]: did not engage IL-6Rα

B2: IL-6Rα ECD: recombinant human IL-6Rα extracellular domain, residues 89-303, biotinylated (protein)
chain: LLVDVPPEEPQLSCFRKSPLSNVVCEWGPRSTPSLTTKAVLLVRKFQNSPAEDFQEPCQYSQESQKFSCQLAVPEGDSSFYIVSMCVASSVGSKFSKTQTFQGCGILQPDPPANITVTAVARNPRWLSVTWQDPHSWNSSFYRLRFELRYRAERSKTFTTWMVKDLQHHCVIHDAWSGLRHVVQLRAQEEFGQGEWSEWSPEAMGTPWTESRSPPLNDIFEAQKIEWHEHHHHHH
Kd [6]: 0.088 µM
